This note sets out measurements from patent publication US20200023080A1, “COMPOSITIONS AND METHOD FOR THE TREATMENT AND DETECTION OF COLON CANCER” (priority 2015, published 2020).

The test system of one assay is rat intestinal fragments. The assay is described as follows: Ex vivo binding of Cy3/Cy5.5 probes with rat intestinal fragments. The text has this:
(§1) SP-333 was labeled with an appropriate infrared (IR) fluorescence dye for in vivo imaging purposes. The peptide was to be labeled with an appropriate IR dye through the reaction of a N-hydroxysuccinamidyl (NHS) activated ester with the amine group of the peptide. Our initial test with the VivoTag680 NHS ester supplied by PerkinElmer, Inc was not successful. […] Labeling SP-333 with Cy3 and the subsequent HPLC purification was successful, with an overall labeling efficiency of 30% achieved. […] Both Cy3 and Cy5.5 belong to a family of cyanine fluorescence dyes used in bioimaging applications. […] We performed similar binding experiments with the cell membranes isolated from T84 cells and from rat intestinal tissues. […] Thus, SP-333-IR680 fluorescence was custom synthesized.

In another assay the target is GC-C receptor (Homo sapiens, UniProt P25092). Kind of assay: Binding of dye-conjugated SP-333 to GC-C receptors (method not specified).
Chain of GC-C receptor (P25092 24-1073): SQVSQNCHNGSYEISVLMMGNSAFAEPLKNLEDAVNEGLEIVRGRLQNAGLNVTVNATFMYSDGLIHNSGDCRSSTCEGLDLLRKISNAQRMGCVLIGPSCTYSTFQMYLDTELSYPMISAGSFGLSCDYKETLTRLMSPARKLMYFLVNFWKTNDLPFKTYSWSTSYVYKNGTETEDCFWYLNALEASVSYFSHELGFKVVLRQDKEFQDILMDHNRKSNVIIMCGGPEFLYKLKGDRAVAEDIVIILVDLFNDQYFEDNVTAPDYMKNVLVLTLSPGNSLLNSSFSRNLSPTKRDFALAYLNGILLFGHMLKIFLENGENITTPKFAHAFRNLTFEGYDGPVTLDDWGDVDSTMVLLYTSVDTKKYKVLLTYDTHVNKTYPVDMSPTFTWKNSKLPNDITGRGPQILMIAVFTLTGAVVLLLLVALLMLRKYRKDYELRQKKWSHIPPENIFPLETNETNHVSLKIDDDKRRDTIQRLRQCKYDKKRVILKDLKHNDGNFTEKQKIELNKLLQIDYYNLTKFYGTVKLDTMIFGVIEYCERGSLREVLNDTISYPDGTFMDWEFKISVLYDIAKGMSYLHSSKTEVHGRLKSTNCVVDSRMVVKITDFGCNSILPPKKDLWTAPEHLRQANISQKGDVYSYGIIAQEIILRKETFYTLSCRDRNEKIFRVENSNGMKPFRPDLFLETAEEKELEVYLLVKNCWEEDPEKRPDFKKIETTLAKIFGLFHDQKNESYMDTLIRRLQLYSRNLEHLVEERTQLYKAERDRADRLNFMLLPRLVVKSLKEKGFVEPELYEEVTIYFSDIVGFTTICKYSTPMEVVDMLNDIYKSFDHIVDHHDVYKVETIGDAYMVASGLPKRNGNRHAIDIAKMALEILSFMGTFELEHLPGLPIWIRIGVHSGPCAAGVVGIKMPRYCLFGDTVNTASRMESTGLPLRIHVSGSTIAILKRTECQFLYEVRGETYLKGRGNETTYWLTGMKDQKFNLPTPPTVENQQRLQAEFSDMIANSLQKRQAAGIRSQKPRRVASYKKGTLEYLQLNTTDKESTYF
From the text: as §1

Assay [1] has as its target T1, GC-C receptors expressed on the surface of T84 cells (Homo sapiens, UniProt P25092).
T1 construct: endogenous in cells; host or cells: T84 cells, intact or as isolated cell membranes
The assay is described as follows: Binding of Cy3/Cy5.5 probes to T84 cells.
From the text: as §1

Assay [2] concerns the target T2, cell membranes isolated from T84 cells (Homo sapiens, UniProt P25092).
T2 construct: endogenous in cells; host or cells: T84 cells, intact or as isolated cell membranes
Kind of assay: Binding of Cy3/Cy5.5 probes to cell membranes isolated from T84 cells.
From the text: as §1

For assay [3], the target named is T3, cell membranes isolated from rat intestinal tissues (Rattus norvegicus, UniProt P23897).
T3 construct: cell membranes isolated from T84 cells and from rat intestinal tissues; from tissue; host or cells: rat intestinal tissue membranes
T3 sequence (P23897 23-1072): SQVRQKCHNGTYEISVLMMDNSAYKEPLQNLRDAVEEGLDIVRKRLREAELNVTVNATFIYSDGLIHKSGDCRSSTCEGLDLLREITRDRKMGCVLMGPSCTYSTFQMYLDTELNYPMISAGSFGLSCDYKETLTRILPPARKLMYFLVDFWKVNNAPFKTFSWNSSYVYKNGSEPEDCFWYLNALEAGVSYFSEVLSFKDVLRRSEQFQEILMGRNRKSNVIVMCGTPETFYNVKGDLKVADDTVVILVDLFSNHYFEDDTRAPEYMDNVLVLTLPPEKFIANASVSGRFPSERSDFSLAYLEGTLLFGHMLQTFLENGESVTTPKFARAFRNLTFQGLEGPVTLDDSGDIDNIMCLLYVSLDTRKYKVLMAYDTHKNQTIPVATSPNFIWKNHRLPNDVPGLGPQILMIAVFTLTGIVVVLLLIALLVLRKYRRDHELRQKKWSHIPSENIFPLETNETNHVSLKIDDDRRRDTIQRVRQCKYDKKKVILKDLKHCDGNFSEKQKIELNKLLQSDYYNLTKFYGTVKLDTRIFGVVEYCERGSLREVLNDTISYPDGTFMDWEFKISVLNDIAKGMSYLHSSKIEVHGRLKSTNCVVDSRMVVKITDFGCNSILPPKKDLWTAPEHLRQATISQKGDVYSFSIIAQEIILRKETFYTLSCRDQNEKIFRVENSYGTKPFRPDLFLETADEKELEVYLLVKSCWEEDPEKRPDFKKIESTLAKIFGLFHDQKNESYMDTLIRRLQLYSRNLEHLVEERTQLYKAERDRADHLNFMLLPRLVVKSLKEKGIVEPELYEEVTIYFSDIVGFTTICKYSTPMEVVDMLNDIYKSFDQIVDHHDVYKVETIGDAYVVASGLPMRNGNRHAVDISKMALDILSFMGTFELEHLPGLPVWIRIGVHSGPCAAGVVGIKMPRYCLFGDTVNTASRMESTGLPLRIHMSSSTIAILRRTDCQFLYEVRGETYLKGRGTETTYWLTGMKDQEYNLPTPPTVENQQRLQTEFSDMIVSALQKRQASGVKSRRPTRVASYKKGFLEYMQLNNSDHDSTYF
Kind of assay: Binding of Cy3/Cy5.5 probes to cell membranes from rat intestinal tissues.
From the text: as §1

Assay [4] concerns the target T4, GC-C receptor in rat intestinal tissues (rat, UniProt P23897 23-1072).
T4 construct: whole, on cells; the protein target is inferred from the preceding sentence on GC-C receptors; also called cell membranes from rat intestinal tissues; rat intestinal fragments
T4 sequence (looked up): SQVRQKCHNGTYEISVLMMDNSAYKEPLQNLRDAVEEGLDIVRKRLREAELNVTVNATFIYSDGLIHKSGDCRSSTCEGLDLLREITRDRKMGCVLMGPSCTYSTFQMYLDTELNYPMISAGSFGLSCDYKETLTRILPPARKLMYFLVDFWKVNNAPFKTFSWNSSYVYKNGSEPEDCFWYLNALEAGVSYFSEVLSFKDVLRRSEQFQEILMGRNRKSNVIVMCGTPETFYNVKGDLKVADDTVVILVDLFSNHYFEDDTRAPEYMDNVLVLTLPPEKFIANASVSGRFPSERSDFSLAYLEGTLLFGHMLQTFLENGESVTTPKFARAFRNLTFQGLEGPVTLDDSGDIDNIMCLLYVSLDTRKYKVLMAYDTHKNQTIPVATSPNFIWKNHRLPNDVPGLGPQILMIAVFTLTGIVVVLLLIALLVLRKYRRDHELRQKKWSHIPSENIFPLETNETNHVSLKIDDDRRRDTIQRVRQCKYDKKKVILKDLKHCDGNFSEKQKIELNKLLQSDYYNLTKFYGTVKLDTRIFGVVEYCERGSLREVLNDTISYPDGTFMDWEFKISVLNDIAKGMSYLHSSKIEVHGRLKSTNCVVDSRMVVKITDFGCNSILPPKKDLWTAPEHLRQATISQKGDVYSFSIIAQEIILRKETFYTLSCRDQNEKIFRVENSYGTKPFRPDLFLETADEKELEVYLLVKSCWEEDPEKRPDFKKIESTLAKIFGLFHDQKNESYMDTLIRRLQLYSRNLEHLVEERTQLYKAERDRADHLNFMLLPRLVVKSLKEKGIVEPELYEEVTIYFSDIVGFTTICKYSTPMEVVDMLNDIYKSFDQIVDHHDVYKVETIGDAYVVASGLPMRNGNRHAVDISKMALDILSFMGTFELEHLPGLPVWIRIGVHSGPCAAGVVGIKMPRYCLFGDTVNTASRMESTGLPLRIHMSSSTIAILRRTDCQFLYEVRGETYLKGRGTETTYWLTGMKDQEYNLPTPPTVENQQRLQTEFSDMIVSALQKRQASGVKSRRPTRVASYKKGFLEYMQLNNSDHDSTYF
The assay is described as follows: binding to cell membranes from rat intestinal tissues; ex vivo binding with rat intestinal fragments.

The target in assay [5] is T5, Guanylate cyclase C (GC-C) receptor expressed on human T84 cells (human, UniProt P25092 24-1073).
T5 construct: whole, on cells; also called GC-C receptors
T5 sequence (P25092 24-1073): as the sequence (P25092 24-1073) above
Kind of assay: competition of unlabeled SP-333 against IR680-SP-333 probe binding on T84 cells.

Positions of bridges follow the written chain, without caps; N, C: chain ends. Non-standard residues stand in square brackets, D forms with d. No end group written: not given here. Cy5.5 = cyanine dye Cy5.5, conjugated via NHS ester; Cy3 = cyanine dye Cy3, conjugated via NHS ester

T2 sequence (P25092 24-1073): as the sequence (P25092 24-1073) above
T1 sequence (P25092 24-1073): as the sequence (P25092 24-1073) above

As to “Cy3-SP-333: SP-333 conjugated with cyanine fluorescence dye Cy3-NHS ester (Cy3-[dN]DECELCVNVACTGC[dL]; disulfide 4-12, 7-15)”, in the assay with rat intestinal fragments, the “specific binding in ex vivo binding with rat intestinal fragments” value is “lack of specific binding”. For the same molecule, in the assay with GC-C receptor, the “binding to GC-C receptors after conjugation of dye to the N-terminal of SP-333” value is “without appreciable loss”. Also, in assay [1], the “specific binding to GC-C receptors on the surface of T84 cells” value is “failed to exhibit specific binding”. Also, the “specific binding to cell membranes isolated from T84 cells” value in assay [2] is reported as “did not show any specific binding”. Also, the “specific binding to cell membranes isolated from rat intestinal tissues” value in assay [3] is on record as “did not show any specific binding”.
Turning to “Cy5.5-SP-333: SP-333 conjugated with cyanine fluorescence dye Cy5.5 NHS ester ({Cy5.5}-[dN]DECELCVNVACTGC[dL]; disulfide 4-12, 7-15)”, in the assay on rat intestinal fragments, the “specific binding in ex vivo binding with rat intestinal fragments” value is recorded as “lack of specific binding”. Further, the “binding to GC-C receptors after conjugation of dye to the N-terminal of SP-333” value with GC-C receptor was “without appreciable loss”. Moreover, the “specific binding to GC-C receptors on the surface of T84 cells” value in assay [1] is “failed to exhibit specific binding”. The “specific binding to cell membranes isolated from T84 cells” value in assay [2] was “did not show any specific binding”. In assay [3], the “specific binding to cell membranes isolated from rat intestinal tissues” value was “did not show any specific binding”.
Consider Cy3-[dN]DECELCVNVACTGC[dL] (disulfide 4-12, 7-15) [Cy3-SP-333], for which, in assay [4], the binding result is given as “no binding”.
On the same count and under the same terms, next, {Cy5.5}-[dN]DECELCVNVACTGC[dL] (disulfide 4-12, 7-15) [Cy5.5-SP-333]: “no binding”.

B1: SP-333 (dolcanatide), unlabeled (peptide)
peptide: [dN]DECELCVNVACTGC[dL]
modifications: disulfide 4-12, 7-15
notes: Synthetic analog of uroguanylin; also called Api 1251
The IC50 is the concentration needed to halve the response being measured. In assay [5], B1 had an IC50 of around 1.6 µM.
